The values that follow come from patent US11674950B2, “Methods determining and treating cellular resistance to ADP-rtbosylating toxin” (priority 2017, dated 2023).

The test system of data set [1] is CAL1, SHI1, and THP1 parental and tagraxofusp-resistant cells. Briefly: MTT viability after conventional chemotherapy (cytarabine, vincristine). Particulars: SL-401 resistant vs parental CAL1, SHI1, THP1. In kind it is cell-based, human. The protocol: CAL1, SHI1, and THP1 parental and tagraxofusp-resistant cells were tested in MTT viability assays after exposure to increasing doses of cytarabine (AraC) or vincristine (VCR).

The subject of another data set is DPH1 locus. Nature of the data set: Bisulfite pyrosequencing of DPH1 locus CpG sites. In kind it is cell-based, human. Particulars: azacitidine 300 nM, 2 days on/2 days off over 2 weeks; resistant cells. The protocol: DPH1 expression is known to be regulated by DNA methylation and sensitivity to Pseudomonas exotoxin A was previously shown to be modulated by CpG methylation in the DPH1 locus. To test whether loss of DPH1 is mediated by DNA methylation, bisulfite pyrosequencing of the DPH1 locus in CpG islands (30 individual CpG sites) was performed by EpigenDx analysis (available on the World Wide Web at epigendx.com/d/service/pyrosequencing/) and the % methylated cytosine at each CpG site was quantitated. This analysis was performed in THP1 parental and 2 SL-401 resistant subclones, and CAL1 parental and 2 SL-401 resistant subclones. Data plotted in FIG. 12 are from THP1 cells, and are representative of CAL1. […] Given this finding, it was believed that 5-azacitidine, a DNA methyltransferase inhibitor or “DNA hypomethylating agent” can reverse the aberrant DPH1 hypermethylation and restore DPH1 expression. The parental and resistant cells were also treated with non-cytotoxic, low doses of azacitidine, so called “epigenetic dosing” (300 nM, 2 days on/2 days off) over 2 weeks to determine if the hypermethylation was reversible by DNA methyltransferase inhibition.

The subject of a further data set is DPH1. Briefly: Quantitative RT-PCR and Western blot for DPH1. In kind it is cell-based, human. In general terms: In western blotting, separated proteins are transferred to a membrane and probed.
Data set [2] concerns BPDCN patient-derived xenografts. The data set is classed as in vivo, mouse. Particulars: for time to progression of peripheral blood leukemia burden: two cycles.
Another data set concerns CAL1 and THP1 cells. Briefly: Short-term cytotoxicity of azacitidine in parental and SL-401 resistant cells. The data set is classed as cell-based, human. The protocol: Next, it was tested if azacitidine cooperated with tagraxofusp in AML and BPDCN cells. First, given that azacitidine acts as a cytotoxic chemotherapy at higher doses, experiments were performed to determine whether tagraxofusp-resistant cells were more sensitive to short-term treatment, similar to what was described above (FIGS. 6-8).

In a further data set the test system is eEF2. Nature of the data set: In vitro ADP-ribosylation assay in cell lysates with biotin-NAD+. In kind it is biochemical, human. How it is done:
A biochemical assay was next performed to test the ability of tagraxofusp to catalyze ADP-ribosylation in cellular lysates in the presence of exogenous biotin-tagged […] (NAD) as a source of ADP-ribose.
To determine the biochemical mechanism of SL-401 resistance and restoration of sensitivity upon non-cytotoxic treatment with azacitidine, an in vitro ADP-ribosylation assay was developed to perform lysates harvested from human leukemia cells. Briefly, 50 μg of cell lysates were harvested and mixed with 5 uM NAD+-Biotin (R&D Systems; 4670-500-01), in the presence or absence of 100 ng of SL-401 (or DT) in 35 uL of reaction buffer containing 20 mM Tris-HCl pH 7.4, 1 mM EDTA, and 50 mM DTT. The mixture is incubated for 15 minutes at room temperature and then the reaction is halted by boiling in SDS loading buffer. An SDS polyacrylamide gel is run and proteins are transferred to a PVDF membrane as in a Western blot. Protein levels are determined by traditional western blot. ADP-ribosylation of target proteins is detected by streptavidin-HRP (Abcam ab7403). […] Top blot is ADP-ribose, presumably on eEF2 (band is at same position as eEF2 protein detected by antibody); next, are levels of eEF2, DPH1, and beta-actin protein.

Data set [3] has as its system IL3R (e.g., CD123) positive AML cell lines and primary leukemia cells. Particulars: cited from earlier work.
For data set [4], the system named is THP1 human AML cells. Briefly: Single cell flow cytometric ADP-ribosylation assay. In kind it is cell-based. Particulars: resistant vs parental THP1. How it is done:
THP1 human AML cells are shown that are parental SL-401 sensitive or SL-401 resistant.
For example, in another embodiment, a flow ADP ribosylation assay may be used to measure the functional activity of the entire diphthamide synthesis pathway (FIG. 20). […] The cells were stained with antibodies (e.g., CD45-APC, CD123-PE) at concentration of 1:100, incubated for 30 min at 4° C., and then washed with FACS buffer 5 minutes. The cells were fixed with 3% paraformaldehyde (PFA), incubated for 20 min at RT, and washed with PBS for 5 minutes. The cells were permeabilized with Saponin (1:10 in H2O, BD Biosciences-“Perm/Wash” solution) for 20 min at 4° C., washed with PBS for 5 minutes, and applied with endogenous Streptavidin block (BD Biosciences) for 20 min at RT. The cells were then washed with PBS for 5 minutes and applied with endogenous Biotin block (BD Biosciences) for 20 min at RT. The cells were then washed with PBS for 5 minutes and applied with protein block for 30 min at RT. The cells were washed twice with FACS buffer. Each wash was for 5 minutes. SL-401/biotin solution was added to the samples and the samples was incubated for 30 min at RT. […] The cells were washed 5 minutes in FACS buffer, resuspended in 300 μl FACS buffer and level of the ADP was detected with the flow assay.
For orientation: In flow cytometry, cells or beads pass a laser one at a time.

The subject of data set [5] is THP1 human AML cells. Briefly: In situ histochemical ADP-ribosylation assay. In kind it is cell-based. Particulars: resistant vs parental THP1.
Data set [6] relates to mouse models of human leukemia. Particulars: in vivo; cited from earlier work.
For data set [7] the following is noted: rodents and monkeys; cited from earlier work.
Data set [8] concerns parental or tagraxofusp-resistant CAL1 cells. Briefly: Confocal microscopy of internalization of fluorescently tagged SL-401. In kind it is cell-based, human. Particulars: 30-60 minutes after exposure, resistant vs parental cells.
The mark [9] stands for this setting: 14 days from initiation of treatment, vs vehicle.

As to `Nc1ccn([C@@H]2O[C@H](CO)[C@@H](O)[C@@H]2O)c(=O)n1` [cytarabine], the “sensitivity of SL-401 resistant cells to chemotherapy” value in [1] is listed as “more sensitive to chemotherapy compared to the parental cells”.
On to `Nc1ncn([C@@H]2O[C@H](CO)[C@@H](O)[C@H]2O)c(=O)n1` [azacitidine, 5-azacytidine], for which the “DPH1 CpG DNA methylation” value in the data set with DPH1 locus was “reduction in the DPH1 CpG DNA hypermethylation”. The “DPH1 protein levels after azacitidine” value in the data set with DPH1 (Western blot, resistant THP1 clones) was “partially or fully restored”. In addition, in the data set with DPH1 (azacitidine 300 nM, 2 days on/2 days off over 2 weeks, quantitative RT-PCR), the “DPH1 mRNA expression” value is reported as “partially restored mRNA expression”. Further, the “time to progression of peripheral blood leukemia burden” value in [2] (four-arm study) is on record as “prolonged the time to progression of peripheral blood leukemia burden”. In the data set with CAL1 and THP1 cells (CAL1 parental and 3 SL-401 resistant subclones), the “azacitidine dose response, resistant vs parental” value is given as “increased sensitivity in resistant cells”. Also, in the data set on CAL1 and THP1 cells (THP1, short-term (72 hour), cytotoxic doses), the “azacitidine cytotoxicity, resistant vs parental” value is “more sensitive to cytotoxic doses of azacitidine than parental cells”. In addition, the “tagraxofusp-mediated ADP ribosylation after azacitidine” value in the data set with eEF2 (long-term azacitidine-treated resistant THP1 cells) is recorded as “complete restoration of tagraxofusp-mediated ADP ribosylation activity”.
On to `CC[C@]1(O)C[C@H]2CN(CCc3c([nH]c4ccccc34)[C@@](C(=O)OC)(c3cc4c(cc3OC)N(C=O)[C@H]3[C@@](O)(C(=O)OC)[C@H](OC(C)=O)[C@]5(CC)C=CCN6CC[C@]43[C@@H]65)C2)C1` [vincristine], for which, in data set [1], the “sensitivity of SL-401 resistant cells to chemotherapy” value is on record as “more sensitive to chemotherapy compared to the parental cells”.

B1: tagraxofusp (protein)
chain: MGADDVVDSSKSFVMENFSSYHGTKPGYVDSIQKGIQKPKSGTQGNYDDDWKGFYSTDNKYDAAGYSVDNENPLSGKAGGVVKVTYPGLTKVLALKVDNAETIKKELGLSLTEPLMEQVGTEEFIKRFGDGASRVVLSLPFAEGSSSVEYINNWEQAKALSVELEINFETRGKRGQDAMYEYMAQACAGNRVRRSVGSSLSCINLDWDVIRDKTKTKIESLKEHGPIKNKVISESPNKTVSEEKAKQYLEEFHQTALEHPELSELKTVTGTNPVFAGANYAAWAVNVAQVIDSETADNLEKTTAALSILPGIGSVMGIADGAVHHNTEEIVAQSIALSSLMVAQAIPLVGELVDIGFAAYNFVESIINLFQVVHNSYNRPAYSPGHKTRPHMAPMTQTTSLKTSWVNCSNMIDEIITHLKQPPLPLLDFNNLNGEDQDILMENNLRRPNLEAFNRAVKSLQNASAIESILKNLLPCLPLATAAPTRHPIHIKDGDWNEFRRKLTFYLKTLENAQAQQTTLSLAW
For the molecule B1, in data set [3], the cytotoxicity entry is “potently and selectively cytotoxic”. The “SL-401-dependent ADP ribosylation activity” value in the data set on THP1 human AML cells [4] and in the data set with THP1 human AML cells [5] was “diminished in the SL-401 resistant cells” each time. For the same molecule, the spleen size entry in data set [2] (setting [9]) is listed as “reduction in splenomegaly”. The splenic infiltration result in data set [2] (setting [9]) was “decreased splenic infiltration of human BPDCN cells”. The “mice remaining at 200 days” value in data set [2] (four-arm study, n=10 mice per arm) was “one”. Also, in data set [2] (one cycle, daily for 5 days, three PDXs combined, vehicle 12 days), the progression-free survival was found to be 48 days. Besides, the overall survival in data set [2] (one cycle, daily for 5 days, three PDXs combined, vehicle 35 days) is given as 71 days. Further, the “reduction of leukemia burden vs vincristine/dexamethasone” value in data set [2] (peripheral blood flow cytometry, most animals) is listed as “longer sustained reduction in human BPDCN leukemia burden”. Also, in [2] (peripheral blood, spleen, and bone marrow), the “residual CD45+CD123+ leukemia at 200 days” value was “detectable leukemia cells in spleen and bone marrow”. Moreover, the “effect of a second cycle” value in data set [2] (second cycle at progression) is recorded as “effective”. Moreover, in data set [2] (three cohorts, 100 ug/kg/day intraperitoneally x5 days), the “response of PDX cohorts” value was “prolonged progression-free and overall survival”. The “time to progression of peripheral blood leukemia burden” value in data set [2] (four-arm study) is listed as “prolonged the time to progression of peripheral blood leukemia burden”. In addition, the anti-tumor efficacy entry in data set [6] is recorded as “in vivo anti-tumor efficacy”. The safety result in data set [7] is reported as “Safety was shown at therapeutically active doses”. The ADP-ribosylation in lysates entry in the data set on eEF2 (parental cells) is given as “caused ADP-ribosylation of a single protein”; in the data set on eEF2 (tagraxofusp-resistant cells), “unable to catalyze ADP-ribosylation of any proteins in the lysate”.

B2: Tagraxofusp-APC: APC-tagged, fluorescently labeled tagraxofusp used for confocal microscopy (conjugate)
chain: MGADDVVDSSKSFVMENFSSYHGTKPGYVDSIQKGIQKPKSGTQGNYDDDWKGFYSTDNKYDAAGYSVDNENPLSGKAGGVVKVTYPGLTKVLALKVDNAETIKKELGLSLTEPLMEQVGTEEFIKRFGDGASRVVLSLPFAEGSSSVEYINNWEQAKALSVELEINFETRGKRGQDAMYEYMAQACAGNRVRRSVGSSLSCINLDWDVIRDKTKTKIESLKEHGPIKNKVISESPNKTVSEEKAKQYLEEFHQTALEHPELSELKTVTGTNPVFAGANYAAWAVNVAQVIDSETADNLEKTTAALSILPGIGSVMGIADGAVHHNTEEIVAQSIALSSLMVAQAIPLVGELVDIGFAAYNFVESIINLFQVVHNSYNRPAYSPGHKTRPHMAPMTQTTSLKTSWVNCSNMIDEIITHLKQPPLPLLDFNNLNGEDQDILMENNLRRPNLEAFNRAVKSLQNASAIESILKNLLPCLPLATAAPTRHPIHIKDGDWNEFRRKLTFYLKTLENAQAQQTTLSLAW
As to B2, the drug internalization result in data set [8] is “internalized equally in resistant and parental cells”.
